The results in this text go back to patent US20050287164A1 (INHIBITEX, published 2005).

This assay deals with T1, Clf40 (A domain of ClfA, AA 40-559, recombinant, six-histidine fusion) (Staphylococcus aureus strain Newman, UniProt Q53653 40-559).
T1 construct: also called ClfA 40
T1 sequence: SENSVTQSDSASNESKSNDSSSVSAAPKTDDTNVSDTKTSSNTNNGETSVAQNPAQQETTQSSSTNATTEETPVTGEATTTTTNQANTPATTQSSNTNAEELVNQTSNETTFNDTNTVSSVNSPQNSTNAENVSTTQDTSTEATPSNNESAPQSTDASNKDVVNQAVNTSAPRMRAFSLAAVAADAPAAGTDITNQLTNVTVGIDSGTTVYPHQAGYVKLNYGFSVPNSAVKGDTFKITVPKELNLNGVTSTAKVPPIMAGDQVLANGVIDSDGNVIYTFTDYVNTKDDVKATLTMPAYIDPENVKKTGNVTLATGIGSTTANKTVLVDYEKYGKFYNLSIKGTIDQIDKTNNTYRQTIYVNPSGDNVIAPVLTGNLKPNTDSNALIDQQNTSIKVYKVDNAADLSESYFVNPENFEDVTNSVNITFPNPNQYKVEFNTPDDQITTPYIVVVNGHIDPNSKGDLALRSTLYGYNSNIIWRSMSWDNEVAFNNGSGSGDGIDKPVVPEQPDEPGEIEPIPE
The assay is described as follows: Biacore 3000, Mab captured by rabbit anti-mouse Fc, Clf protein in flow.

B1: Monoclonal antibody 12-9 (antibody, V domains shown)
VH: QVQLKESGPGLVAPSQSLSITCAISGFSLSRYSVHWVRQPPGKGLEWLGMIWGGGNTDYNSALKSRLSISKDNSKSQVFLKMNSLQTDDTAMYYCARKGEFYYGYDGFVYWGQGTLVTVSA
VL: NIMMTQSPSSLAVSAGEKVTMSCKSSQSVLYSSNQKNYLAWYQQKPGQSPKLLIYWASTRESGVPDRFTGSGSGTDFTLTISSVQAEDLAVYYCHQYLSSYTFGGGTKLEIK
notes: also called F12-9; Mab 12-9
What is called kon is the second-order rate constant of association. Consider B1, for which the kon was found to be 774000 M⁻¹ s⁻¹.
